Measurements published in US20240400614A1, “CLEAVABLE PEPTIDES AND METHODS OF USE THEREOF” (Bright Peak Therapeutics AG, priority 2023, published 2024).
Square brackets hold non-standard residues; d marks the D form. Ends that are not written are not given here. Tyr(3-NO2) = N[C@@H](Cc1ccc(O)c([N+](=O)[O-])c1)C(=O)O; 2Abz = Nc1ccccc1C(=O)O

Tests used:
Format in all cases: biochemical
matriptase = molecular target: T1, matriptase (Homo sapiens, UniProt Q9Y5Y6); assay: FRET peptide cleavage efficiency with matriptase
T1 construct: purchased R&D Systems 3946-SEB
T1 sequence (Q9Y5Y6 615-855 limits assumed): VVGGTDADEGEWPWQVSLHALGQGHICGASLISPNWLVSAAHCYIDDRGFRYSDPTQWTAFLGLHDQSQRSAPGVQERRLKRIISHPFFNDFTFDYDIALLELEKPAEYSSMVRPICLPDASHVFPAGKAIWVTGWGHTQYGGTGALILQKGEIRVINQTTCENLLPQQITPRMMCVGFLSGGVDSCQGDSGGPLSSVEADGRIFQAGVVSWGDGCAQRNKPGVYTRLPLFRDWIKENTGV

MMP-2 = molecular target: T2, MMP-2 (Homo sapiens, UniProt P08253); assay: FRET peptide cleavage efficiency with MMP-2
T2 construct: purchased SIGMA PF023
T2 sequence (P08253 110-660): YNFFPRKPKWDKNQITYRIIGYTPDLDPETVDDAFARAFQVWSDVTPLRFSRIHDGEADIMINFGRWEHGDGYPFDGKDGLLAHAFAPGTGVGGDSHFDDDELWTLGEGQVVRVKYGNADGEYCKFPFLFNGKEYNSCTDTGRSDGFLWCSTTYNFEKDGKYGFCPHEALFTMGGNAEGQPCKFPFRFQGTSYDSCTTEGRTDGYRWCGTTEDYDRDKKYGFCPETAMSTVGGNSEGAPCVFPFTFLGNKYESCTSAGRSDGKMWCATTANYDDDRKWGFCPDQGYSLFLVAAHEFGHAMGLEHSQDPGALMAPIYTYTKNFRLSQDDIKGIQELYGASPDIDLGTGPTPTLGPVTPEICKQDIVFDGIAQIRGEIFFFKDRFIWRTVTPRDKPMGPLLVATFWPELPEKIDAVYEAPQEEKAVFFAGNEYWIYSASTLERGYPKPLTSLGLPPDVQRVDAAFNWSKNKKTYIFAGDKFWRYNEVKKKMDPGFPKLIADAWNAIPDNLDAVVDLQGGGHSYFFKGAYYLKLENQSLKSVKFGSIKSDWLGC

MMP-7 = molecular target: T3, MMP-7 (Homo sapiens, UniProt P09237); assay: FRET peptide cleavage efficiency with MMP-7 (standard pH 7.5; also pH 6.5)
T3 construct: purchased SIGMA CC1059
T3 sequence (P09237 95-267): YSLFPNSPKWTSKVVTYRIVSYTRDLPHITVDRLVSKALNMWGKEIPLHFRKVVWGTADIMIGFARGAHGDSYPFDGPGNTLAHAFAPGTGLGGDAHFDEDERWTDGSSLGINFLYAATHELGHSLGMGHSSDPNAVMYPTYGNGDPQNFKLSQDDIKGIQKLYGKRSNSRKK

MMP-9 = molecular target: T4, MMP-9 (Homo sapiens, UniProt P14780); assay: FRET peptide cleavage efficiency with MMP-9 (standard pH 7.5; also pH 6.5)
T4 construct: purchased SIGMA PF024
T4 sequence (P14780 94-707): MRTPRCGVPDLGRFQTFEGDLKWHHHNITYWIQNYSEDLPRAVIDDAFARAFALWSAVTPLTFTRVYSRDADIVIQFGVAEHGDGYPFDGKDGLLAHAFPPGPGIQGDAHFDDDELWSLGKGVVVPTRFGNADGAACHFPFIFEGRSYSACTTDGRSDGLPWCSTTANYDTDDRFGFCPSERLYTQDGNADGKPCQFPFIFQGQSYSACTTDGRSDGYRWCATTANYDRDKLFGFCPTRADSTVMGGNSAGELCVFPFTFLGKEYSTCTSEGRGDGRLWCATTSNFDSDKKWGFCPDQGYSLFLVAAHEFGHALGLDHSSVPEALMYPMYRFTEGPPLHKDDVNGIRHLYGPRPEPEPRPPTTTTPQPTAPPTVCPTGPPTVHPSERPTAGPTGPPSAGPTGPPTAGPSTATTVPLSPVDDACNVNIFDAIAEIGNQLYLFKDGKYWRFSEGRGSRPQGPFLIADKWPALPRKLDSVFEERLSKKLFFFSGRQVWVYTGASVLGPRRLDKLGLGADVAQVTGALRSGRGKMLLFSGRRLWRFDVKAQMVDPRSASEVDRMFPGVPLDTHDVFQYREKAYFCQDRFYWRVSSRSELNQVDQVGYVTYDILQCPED

uPA = uPA (Homo sapiens, UniProt P00749); assay: FRET peptide cleavage efficiency with uPA
[1] = t = 60 min, standard conditions (Table 8)
[2] = t = 120 min, standard conditions (Table 8)
[3] = t = 15 min, standard conditions (Table 8)
[4] = 200 uM linker, 1 ug/ml protease, 37° C., buffer B pH 9.0
[5] = t = 15 min, 200 uM linker, 1 ug/ml protease, 37° C., buffer C pH 7.5
[6] = t = 60 min, 200 uM linker, 1 ug/ml protease, 37° C., buffer C pH 7.5
[7] = t = 120 min, 200 uM linker, 1 ug/ml protease, 37° C., buffer C pH 7.5
[8] = 200 uM linker, 1 ug/ml protease, 37° C., buffer A pH 8.5

## SGRVQPLVD (not fully specified (N-terminus, C-terminus)) [LNK047]
matriptase; standard conditions (Table 8)
  % cleavage Matriptase t = 15 min: 4%
  % cleavage Matriptase t = 60 min: 17%
  % cleavage Matriptase t = 120 min: 33%
MMP-2; t = 15 min (Table 9)
  % cleavage MMP-2 t = 15 min: 2%
MMP-2; t = 60 min (Table 9)
  % cleavage MMP-2 t = 60 min: 5%
MMP-2; [1]
  % cleavage MMP-2 t = 60 min: 5%
MMP-2; t = 120 min (Table 9)
  % cleavage MMP-2 t = 120 min: 9%
MMP-2; [2]
  % cleavage MMP-2 t = 120 min: 9%
MMP-7; t = 15 min (Table 9)
  % cleavage MMP-7 t = 15 min: 20%
MMP-7; [3]
  % cleavage MMP-7 t = 15 min: 20%
MMP-7; t = 60 min (Table 9)
  % cleavage MMP-7 t = 60 min: 65%
MMP-7; [1]
  % cleavage MMP-7 t = 60 min: 65%
MMP-7; t = 120 min (Table 9)
  % cleavage MMP-7 t = 120 min: 88%
MMP-7; [2]
  % cleavage MMP-7 t = 120 min: 88%
MMP-9; t = 15 min (Table 9)
  % cleavage MMP-9 t = 15 min: 1%
MMP-9; [3]
  % cleavage MMP-9 t = 15 min: 1%
MMP-9; t = 60 min (Table 9)
  % cleavage MMP-9 t = 60 min: 2%
MMP-9; [1]
  % cleavage MMP-9 t = 60 min: 2%
MMP-9; t = 120 min (Table 9)
  % cleavage MMP-9 t = 120 min: 4%
MMP-9; [2]
  % cleavage MMP-9 t = 120 min: 4%
uPA; standard conditions (Table 8)
  % vcleavage uPA t = 15 min: 1%
  % cleavage uPA t = 60 min: 1%
  % cleavage uPA t = 120 min: 2%

## RGRRGP ([2Abz]RGRRGP[Tyr(3-NO2)]-NH2) [LNK048]
matriptase; standard conditions (Table 8)
  % cleavage Matriptase t = 15 min: 100%
  % cleavage Matriptase t = 60 min: 100%
  % cleavage Matriptase t = 120 min: 100%
MMP-2; t = 15 min (Table 9)
  % cleavage MMP-2 t = 15 min: 0%
MMP-2; t = 60 min (Table 9)
  % cleavage MMP-2 t = 60 min: 0%
MMP-2; [1]
  % cleavage MMP-2 t = 60 min: 0%
MMP-2; t = 120 min (Table 9)
  % cleavage MMP-2 t = 120 min: 0%
MMP-2; [2]
  % cleavage MMP-2 t = 120 min: 0%
MMP-7; t = 15 min (Table 9)
  % cleavage MMP-7 t = 15 min: 0%
MMP-7; [3]
  % cleavage MMP-7 t = 15 min: 0%
MMP-7; t = 60 min (Table 9)
  % cleavage MMP-7 t = 60 min: 0%
MMP-7; [1]
  % cleavage MMP-7 t = 60 min: 0%
MMP-7; t = 120 min (Table 9)
  % cleavage MMP-7 t = 120 min: 0%
MMP-7; [2]
  % cleavage MMP-7 t = 120 min: 0%
MMP-9; t = 15 min (Table 9)
  % cleavage MMP-9 t = 15 min: 0%
MMP-9; [3]
  % cleavage MMP-9 t = 15 min: 0%
MMP-9; t = 60 min (Table 9)
  % cleavage MMP-9 t = 60 min: 0%
MMP-9; [1]
  % cleavage MMP-9 t = 60 min: 0%
MMP-9; t = 120 min (Table 9)
  % cleavage MMP-9 t = 120 min: 0%
MMP-9; [2]
  % cleavage MMP-9 t = 120 min: 0%
uPA; standard conditions (Table 8)
  % vcleavage uPA t = 15 min: 0%
  % cleavage uPA t = 60 min: 0%
  % cleavage uPA t = 120 min: 0%

## SGRVLGPANLVG (Abz-SGRVLGPANLVG[Tyr(3-NO2)]) [LNK006]
matriptase
  % cleavage Matriptase t = 15 min: 19%
  % cleavage Matriptase t = 60 min: 71%
  % cleavage Matriptase t = 120 min: 92%
MMP-2; t = 15 min
  % cleavage MMP-2 t = 15 min: 98%
MMP-2; t = 60 min
  % cleavage MMP-2 t = 60 min: 98%
MMP-2; t = 120 min
  % cleavage MMP-2 t = 120 min: 96%
uPA
  % cleavage uPA t = 15 min: 0%
  % cleavage uPA t = 60 min: 0%
  % cleavage uPA t = 120 min: 1%

## SGRVLPANLVG ([2Abz]SGRVLPANLVG[Tyr(3-NO2)]-NH2) [LNK015]
matriptase; [4]
  % cleavage Matriptase t = 15 min: 25%
  % cleavage Matriptase t = 60 min: 78%
  % cleavage Matriptase t = 120 min: 96%
MMP-2; [5]
  % cleavage MMP-2 t = 15 min: 94%
MMP-2; [6]
  % cleavage MMP-2 t = 60 min: 99%
MMP-2; [7]
  % cleavage MMP-2 t = 120 min: 98%
uPA; [8]
  % cleavage uPA t = 15 min: 0%
  % cleavage uPA t = 60 min: 0%
  % cleavage uPA t = 120 min: 1%

## SGRVLPYAMTA ([2Abz]SGRVLPYAMTA[Tyr(3-NO2)]-NH2) [LNK024]
matriptase; [4]
  % cleavage Matriptase t = 15 min: 44%
  % cleavage Matriptase t = 60 min: 92%
  % cleavage Matriptase t = 120 min: 98%
MMP-2; [5]
  % cleavage MMP-2 t = 15 min: 55%
MMP-2; [6]
  % cleavage MMP-2 t = 60 min: 97%
MMP-2; [7]
  % cleavage MMP-2 t = 120 min: 99%
uPA; [8]
  % cleavage uPA t = 15 min: 1%
  % cleavage uPA t = 60 min: 0%
  % cleavage uPA t = 120 min: 1%

## SGRVLGPAGLVG (Abz-SGRVLGPAGLVG[Tyr(3-NO2)]) [LNK005]
matriptase
  % cleavage Matriptase t = 15 min: 15%
  % cleavage Matriptase t = 60 min: 63%
  % cleavage Matriptase t = 120 min: 86%
MMP-2; t = 15 min
  % cleavage MMP-2 t = 15 min: 100%
MMP-2; t = 60 min
  % cleavage MMP-2 t = 60 min: 98%
MMP-2; t = 120 min
  % cleavage MMP-2 t = 120 min: 97%
uPA
  % cleavage uPA t = 15 min: 0%
  % cleavage uPA t = 60 min: 0%
  % cleavage uPA t = 120 min: 1%

## SSRAVFRKNLGPLGLAG ([2Abz]SSRAVFRKNLGPLGLAG[Tyr(3-NO2)]-NH2) [LNK002]
matriptase; [4]
  % cleavage Matriptase t = 15 min: 89%
  % cleavage Matriptase t = 60 min: 85%
  % cleavage Matriptase t = 120 min: 84%
MMP-2; [5]
  % cleavage MMP-2 t = 15 min: 77%
MMP-2; [6]
  % cleavage MMP-2 t = 60 min: 99%
MMP-2; [7]
  % cleavage MMP-2 t = 120 min: 98%
uPA; [8]
  % cleavage uPA t = 15 min: 5%
  % cleavage uPA t = 60 min: 10%
  % cleavage uPA t = 120 min: 18%

## SGRVLPAGLVG ([2Abz]SGRVLPAGLVG[Tyr(3-NO2)]-NH2) [LNK007]
matriptase; [4]
  % cleavage Matriptase t = 15 min: 23%
  % cleavage Matriptase t = 60 min: 79%
  % cleavage Matriptase t = 120 min: 97%
MMP-2; [5]
  % cleavage MMP-2 t = 15 min: 99%
MMP-2; [6]
  % cleavage MMP-2 t = 60 min: 95%
MMP-2; [7]
  % cleavage MMP-2 t = 120 min: 94%
uPA; [8]
  % cleavage uPA t = 15 min: 0%
  % cleavage uPA t = 60 min: 0%
  % cleavage uPA t = 120 min: 1%

## RQRRSVVGG ([2Abz]RQRRSVVGG[Tyr(3-NO2)]-NH2) [LNK029]
matriptase; [4]
  % cleavage Matriptase t = 15 min: 96%
  % cleavage Matriptase t = 60 min: 96%
  % cleavage Matriptase t = 120 min: 98%
MMP-2; [5]
  % cleavage MMP-2 t = 15 min: 0%
MMP-2; [6]
  % cleavage MMP-2 t = 60 min: 0%
MMP-2; [7]
  % cleavage MMP-2 t = 120 min: 0%
uPA; [8]
  % cleavage uPA t = 15 min: 0%
  % cleavage uPA t = 60 min: 0%
  % cleavage uPA t = 120 min: 1%

## SGRVLTLRKAPWGLLE ([2Abz]SGRVLTLRKAPWGLLE[Tyr(3-NO2)]-NH2) [LNK004]
matriptase; [4]
  % cleavage Matriptase t = 15 min: 98%
  % cleavage Matriptase t = 60 min: 98%
  % cleavage Matriptase t = 120 min: 95%
MMP-2; [5]
  % cleavage MMP-2 t = 15 min: 16%
MMP-2; [6]
  % cleavage MMP-2 t = 60 min: 50%
MMP-2; [7]
  % cleavage MMP-2 t = 120 min: 74%
uPA; [8]
  % cleavage uPA t = 15 min: 6%
  % cleavage uPA t = 60 min: 16%
  % cleavage uPA t = 120 min: 27%

## RQRRSAPLGLAG ([2Abz]RQRRSAPLGLAG[Tyr(3-NO2)]-NH2) [LNK009]
matriptase; [4]
  % cleavage Matriptase t = 15 min: 71%
  % cleavage Matriptase t = 60 min: 45%
  % cleavage Matriptase t = 120 min: 31%
MMP-2; [5]
  % cleavage MMP-2 t = 15 min: 72%
MMP-2; [6]
  % cleavage MMP-2 t = 60 min: 99%
MMP-2; [7]
  % cleavage MMP-2 t = 120 min: 99%
uPA; [8]
  % cleavage uPA t = 15 min: 0%
  % cleavage uPA t = 60 min: 1%
  % cleavage uPA t = 120 min: 3%
